Biological target: T1, human interleukin-18 (human, UniProt Q14116 37-193)
T1 construct: Immobilised on plates in the ELISAs; also called human IL-18; IL-18
T1 sequence (looked up): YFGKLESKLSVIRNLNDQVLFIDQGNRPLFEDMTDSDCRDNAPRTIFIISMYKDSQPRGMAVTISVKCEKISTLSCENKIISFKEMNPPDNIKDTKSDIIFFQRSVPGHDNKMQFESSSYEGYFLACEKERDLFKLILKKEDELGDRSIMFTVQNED
Test: phage ELISA, scFv-presenting phage on immobilised human IL-18 (HSA as comparison), anti-M13 detection, A405
Procedure: ELISA for screening separated clones was carried out by immobilizing human IL-18 on an ELISA plate. Specifically, 2 μg/ml of human IL-18 and 2.5 μg/ml of human serum albumin (HSA) were put in a 40 μL/well ELISA plate (Nunc), allowed to stand for 16 hours at 4° C., and then immobilized on the plate. For blocking, 400 μL/well of PBS solution containing 0.5% BSA, 0.5% gelatin, and 5% skim milk was put in the ELISA plate, and then allowed to stand for 2 hours at 4° C.
Next, into the ELISA plate, 40 μL/well of sample solution containing an scFV-presenting phage was poured, and the mixture was allowed to react. Thereafter, the sample solution was removed, and the product was washed 5 times by using a cleaning liquid. Subsequently, to the immobilized scFv phage, a biotin-labeled anti-M13 monoclonal antibody (Pharmacia biotech) was added, and the mixture was allowed to react with an alkaline phosphatase (AP)-labeled anti-mouse IgG antibody serving as a secondary antibody. The reaction liquid was washed 5 times by using a cleaning liquid.

B1: human anti-human IL-18 scFv fragment h18-108 (scFv, V domains shown)
VH: QVQLVQSGAEVRRPGASVRVSCKASGYTFTSHYIHWVRQAPGQGLEWVAIINPSDGRTDYAQKFQGRVTVTRDTSASSVYMGISSLRSEDTAMYYCARTARGFSYATDWGQGTLVTVSS
VL: SYELTQPPSVSVSPGQTARITCSGDALPKKYAYWYQQKPGQAPVLVIYKDSERPSGIPERFSGSSSGTTVTLTISGVQAEDEADYYCQSADSSGTYVVFGGGTQLTVL
notes: Expressed in E. coli from pCANTAB5E and purified on anti-E tag antibody; By gel filtration 90% monomer, 10% dimer
Does B1 bind?
Result: binds

Reference: patent US20060292145A1 (JAPAN SCIENCE AND TECHNOLOGY, published 2006)
